Test results taken from PMC2212392.
pKd: −log10 of the molar value. Where two headings read alike, the source gives them in different places.

What was measured:
Test in all cases: SPR
[1] = molecular target: soluble mCD2 comprising the extracellular region of mCD2 (mouse) (UniProt P08920)
[2] = molecular target: soluble mCD2 comprising the extracellular region of mCD2 (mouse) (UniProt P08920); remark: listed apart in the source
[3] = molecular target: soluble mCD2 comprising the extracellular region of mCD2 (mouse) (UniProt P08920); remark: listed apart in the source

UniProt P08920, sequence (P08920 23-203): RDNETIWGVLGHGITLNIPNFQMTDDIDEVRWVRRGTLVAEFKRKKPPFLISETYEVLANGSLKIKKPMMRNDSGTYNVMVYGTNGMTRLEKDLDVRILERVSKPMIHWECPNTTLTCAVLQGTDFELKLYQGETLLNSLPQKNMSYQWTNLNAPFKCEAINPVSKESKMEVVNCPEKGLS

soluble mCD48 (purified monomeric mouse CD48 with a COOH-terminal His-tag) (from UniProt P18181 23-217) (domain or fragment)
pKd [1]: 4.31
koff [2]: 22 s⁻¹
pKd [3]: 4.05
koff [3]: > 20 s⁻¹
